Test results published in paper PMC6249252, “COMP and TSP-4 interact specifically with the novel GXKGHR motif only found in fibrillar collagens” (Scientific Reports, 2018).

Target: collagen type XI (UniProt P12107 36-1563; P13942 28-1736, hydroxyproline/hydroxylysine expected in native collagen; preparation and processing not stated; alpha3(XI) taken as COL2A1 product)
Assay: ELISA; collagen model peptide or collagen XI coated; COMP or TSP-4 at indicated concentrations in TBS-T with 0.25% BSA, 1 h, room temperature; detected with anti-COMP or anti-TSP-4 antibody; four-parameter logistic fit; apparent KD
Conditions: both partners purified

B1: cartilage oligomeric matrix protein (COMP), wild type, pentameric (natural protein)
chain: not shown
notes: cartilage oligomeric matrix protein (COMP, TSP-5); residue numbers Asp593-Asp595 as in PDB 3FBY; also called COMP wt; TSP-5; source: HEK293 (EBNA), pCEP vector, serum-free supernatant, purified (Strep-Tactin)
  Kd: 20 nM
